Results on three molecules are retold here after doi:10.1101/2022.10.31.514592 (bioRxiv, 2022).

One test concerns the target SARS-CoV-2 WT RBD (SARS-CoV-2, wildtype (Wuhan-Hu-1 type), UniProt P0DTC2). The test is described as follows: ELISA.
Another test deals with SARS-CoV-1 RBD (SARS-CoV-1, strain , UniProt P59594). The test is described as follows: ELISA.

B1: S451-1140 IgG (antibody, V domains shown)
VH: EVQLVESGGGLVPPGGSLRLSCAASGFIFSNYAMTWVRQAPGKGLEWVSAISGGGGSTDYADSVKGRFTISRDNSKNTLYLQMNSLRAEDTAVYYCAKDLFGSGWSLFDNWGQGTLVTVSS
VL: not shown
Turning to B1, the binding result with SARS-CoV-2 WT RBD is “binds”.

B2: S728-1157 IgG (antibody, V domains shown)
VH: EVQLVESGGGLVQPGGSLRLSCAASGLLVSRNYMNWVRQAPGKGLEWVSIIYSGGSTFYADSVEGRFTISRDESKNTLYLQMNSLRTDDTAVYYCARDLSDYGGIDCWGQGTLVTVSS
VL: ELTQPLSVSMALGQTARISCGGDNVGSQNVHWYQQRPGQAPVLVIYRDSNRPSGIPERFSGSKSGNTATLTISRAQAGDEADYYCQVWDSSTVAFGGGTKLTVL
Turning to B2, the binding result with SARS-CoV-2 WT RBD is reported as “binds”.

B3: S626-161 IgG (antibody, V domains shown)
VH: QLQLQESGPGLVKPSEALSLTCTVSGGSISTSNYYWGWIRQPPGKGLEWIGSIYYRGGTHYNPSLKTRVTISVDTSKNQFSLKLSSVTAADTAVYYCARHTYFYDIVGAAVWEPFDIWGQGTMVTVSS
VL: not shown
As for B3, the binding result in the test with SARS-CoV-2 WT RBD and with SARS-CoV-1 RBD was “binds” in each case.
